These results are taken from publication PMC10604209, “Thermal Characterization and Interaction of the Subunits from the Multimeric Bacteriophage Endolysin PlyC” (Biology, 2023).

Sequences and labels used below:
B1: PlyCB, the cell wall binding subunit of the endolysin PlyC (PlyCB CBD, an octamer) (natural protein)
chain: MSKINVNVENVSGVQGFLFHTDGKESYGYRAFINGVEIGIKDIETVQGFQQIIPSINISKSDVEAIRKAMKK
notes: PlyCB, 8 kDa subunit of the streptococcal bacteriophage endolysin PlyC; Above about 74 °C in PBS the octamer is said to dissociate reversibly into a monomeric intermediate state; also called PlyCB octamer; PlyCB subunit; source: also as a subunit of the purified recombinant PlyC holoenzyme
B2: PlyCA, the catalytic subunit of the endolysin PlyC (enzyme, UniProt Q7Y3F1 1-465, looked up)
chain: MSKKYTQQQYEKYLAQPANNTFGLSPQQVADWFMGQAGARPVINSYGVNASNLVSTYIPKMQEYGVSYTLFLMYTVFEGGGAGNWINHYMYDTGSNGLECLEHDLQYIHGVWETYFPPALSAPECYPATEDNAGALDRFYQSLPGRTWGDVMIPSTMAGNAWVWAYNYCVNNQGAAPLVYFGNPYDSQIDSLLAMGADPFTGGSITGDGKNPSVGTGNATVSASSEANREKLKKALTDLFNNNLEHLSGEFYGNQVLNAMKYGTILKCDLTDDGLNAILQLIADVNLQTNPNPDKPTVQSPGQNDLGSGSDRVAANLANAQAQVGKYIGDGQCYAWVGWWSARVCGYSISYSTGDPMLPLIGDGMNAHSIHLGWDWSIANTGIVNYPVGTVGRKEDLRVGAIWCATAFSGAPFYTGQYGHTGIIESWSDTTVTVLEQNILGSPVIRSTYDLNTFLSTLTGLITFK

Series [1] addresses B2. Kind of series: SEC; 500 uL ice-cold 19.5 uM PlyCA added rapidly to 500 uL 15.6 uM PlyCB CBD in PBS heated to 75 °C, cooled on ice 5 min, centrifuged, HiPrep 16/60 Sephacryl S-200 HR in PBS; the peak corresponding to native PlyC analysed by SDS-PAGE. The note with it: both partners purified.
Series [2] concerns the molecule itself. Kind of series: cross-linking; PlyCB CBD 1 mg/mL in PBS heated 10 min at temperatures up to 74.4 °C, amine cross-linking with 1 mM BS3 for 10 min, quenched with Tris, cooled on ice, SDS-PAGE.
Series [3] deals with B1. As to the kind of experiment: cell-based or functional assay.

For B1, the binding result in series [1] and in series [2] was “binds” each time. Consider B2, for which the “bacteriolytic activity toward S. pyogenes (turbidity reduction assay) of ice-cold PlyCA mixed about 1:1 with PlyCB CBD heated to 75 °C and then rapidly cooled, relative to native PlyC” value in series [3] was 35 % of the relative bacteriolytic activity of native PlyC.
